From article PMC5943514, “Substrate specificity of human MCPIP1 endoribonuclease” (Scientific Reports, 2018) come the findings set out here.

Substitutions are numbered along the chain they refer to. Names may count otherwise. “And” between values parts separate entries of the source, which are not always exact repeats. Identical values can stand only once.

For data set [1], the target named is T1, MCPIP1 D141N (Regnase-1), full length (Homo sapiens, UniProt Q5D1E8 1-599, D141N).
T1 sequence: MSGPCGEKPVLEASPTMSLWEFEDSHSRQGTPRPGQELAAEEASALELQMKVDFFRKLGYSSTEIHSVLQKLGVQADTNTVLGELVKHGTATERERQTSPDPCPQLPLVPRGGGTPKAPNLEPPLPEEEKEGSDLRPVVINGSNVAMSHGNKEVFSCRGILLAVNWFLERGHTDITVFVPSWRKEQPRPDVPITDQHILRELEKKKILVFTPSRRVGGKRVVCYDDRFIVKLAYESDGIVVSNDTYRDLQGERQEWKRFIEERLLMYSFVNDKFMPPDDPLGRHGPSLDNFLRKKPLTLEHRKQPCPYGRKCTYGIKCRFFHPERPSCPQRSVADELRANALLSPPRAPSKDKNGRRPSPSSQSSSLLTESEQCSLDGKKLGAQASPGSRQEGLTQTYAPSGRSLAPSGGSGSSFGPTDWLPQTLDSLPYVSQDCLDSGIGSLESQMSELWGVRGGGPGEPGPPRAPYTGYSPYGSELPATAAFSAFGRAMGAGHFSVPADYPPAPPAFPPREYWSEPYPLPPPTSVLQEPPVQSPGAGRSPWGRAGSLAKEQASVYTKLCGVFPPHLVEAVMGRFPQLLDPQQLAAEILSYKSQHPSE
Description: fluorescence intensity titration; 2.5 mM Mg2+; 25 mM Tris-HCl pH 7.9, 150 mM NaCl, 5% glycerol, 2.5 mM MgCl2, 1 mM DTT, 0.5 mM EDTA, 0.05 mM ZnCl2, 25 C; oligo 2 nM (full length) or 20 nM (PIN, PIN-ZF). Conditions: protein: recombinant, tags: none stated (purified by ion exchange), chain copies: 2.

Data set [2] concerns the target T2, PIN-ZF D141N (Homo sapiens, UniProt Q5D1E8 134-327, D141N).
T2 sequence: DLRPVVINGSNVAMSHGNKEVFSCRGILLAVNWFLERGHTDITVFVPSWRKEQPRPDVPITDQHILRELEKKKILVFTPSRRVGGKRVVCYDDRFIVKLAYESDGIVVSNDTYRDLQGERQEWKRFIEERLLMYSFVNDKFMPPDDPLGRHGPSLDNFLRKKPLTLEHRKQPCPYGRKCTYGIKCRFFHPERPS
Described as above. Conditions: protein: recombinant, tags: N-terminal His6, chain copies: 2.

The target in data set [3] is T3, PIN D141N (Homo sapiens, UniProt Q5D1E8 134-297, D141N).
T3 sequence: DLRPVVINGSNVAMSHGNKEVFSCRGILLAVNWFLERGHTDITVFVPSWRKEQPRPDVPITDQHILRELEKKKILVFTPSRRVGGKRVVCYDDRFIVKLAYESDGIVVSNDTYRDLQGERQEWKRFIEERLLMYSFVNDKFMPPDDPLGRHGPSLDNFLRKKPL
Described as above. Conditions: protein: recombinant, tags: N-terminal His6, chain copies: 2.

Data set [4] deals with the molecule itself. Description: SEC; analytical Superdex 200 Increase 10/300 GL calibrated with protein standards; 25 mM Tris pH 7.9, 300 mM NaCl, 10% glycerol, 1 mM DTT, 0.5 mM EDTA, also with 1.6 M urea; apparent molecular weight from the calibration curve, multiple Gaussian peak fit. In general terms: In gel filtration, larger molecules generally elute earlier.
The target of data set [5] is T2, PIN-ZF D141N. Description: fluorescence intensity titration; 2.5 mM Mg2+; 20 nM oligo; sequential 2:1 model; 25 mM Tris-HCl pH 7.9, 150 mM NaCl, 5% glycerol, 2.5 mM MgCl2, 1 mM DTT, 0.5 mM EDTA, 0.05 mM ZnCl2, 25 C; oligo 2 nM (full length) or 20 nM (PIN, PIN-ZF). Conditions: protein: recombinant; tags: N-terminal His6; chain copies: 2; label: 5' 6-FAM; hairpin.
Data set [6] deals with T3, PIN D141N. Described as above. Conditions: protein: recombinant; tags: N-terminal His6; chain copies: 2; label: 5' 6-FAM; hairpin.
The mark [7] stands for this setting: label: 5' 6-FAM on strand 1, blunt, strands mixed 1:1.2.

Consider UGUUGUU (ssRNA) [mIL-6 82-88 ssRNA], for which the Kd (in general, a measure of binding affinity in units of concentration) is 14.5 ± 8.1 nM in data set [1] (label: 5' 6-FAM, unstructured); 32 ± 20 nM with PIN-ZF D141N [2] (label: 5' 6-FAM, unstructured); 40 ± 12 nM with PIN D141N [3] (label: 5' 6-FAM, unstructured).

On to TGTTGTTCTCTA (ssDNA) [mIL-6 82-93 ssDNA], for which the Kd is 18.3 ± 8.2 nM in data set [1] (label: 5' 6-FAM), 36 ± 20 nM with PIN-ZF D141N [2] (label: 5' 6-FAM) and 21.7 ± 6.6 nM with PIN D141N [3] (label: 5' 6-FAM).

For the molecule UGGAAAGUAUCUUUCCU (structured_RNA) [consensus stem-loop], the Kd in data set [1] (label: 5' 6-FAM, hairpin) worked out at 3.8 ± 2.8 nM; with PIN-ZF D141N [2] (label: 5' 6-FAM, hairpin), 9.1 ± 3.2 nM; in the data set with PIN D141N [3] (label: 5' 6-FAM, hairpin), 36 ± 17 nM.

On to UGUUCUCUACGAAGAAC (structured_RNA) [mIL-6 85-101 short stem], for which the Kd in data set [1] (label: 5' 6-FAM, hairpin) was determined as 9.2 ± 4 nM; in the data set with PIN-ZF D141N [2] (label: 5' 6-FAM, hairpin) it was 20 ± 10 nM; in the data set with PIN D141N [3] (label: 5' 6-FAM, hairpin), 20.7 ± 7.2 nM.

Regarding UGUUGUUCUCUACGAAGAACUGACA (structured_RNA) [mIL-6 82-106 3'FAM], the Kd in data set [1] (label: 3' 6-FAM, hairpin) is 8.6 ± 2.6 nM; with PIN-ZF D141N [2] (label: 3' 6-FAM, hairpin) it was 4.8 ± 1.8 nM; with PIN D141N [3] (label: 3' 6-FAM, hairpin), 21.8 ± 6.3 nM.

B1: mIL-6 82-93 dsDNA (dsDNA)
DNA 1: TGTTGTTCTCTA
DNA 2: TAGAGAACAACA
B1: the Kd is 118 ± 49 nM in data set [1] (setting [7]), 80 ± 30 nM with PIN-ZF D141N [2] (setting [7]) and 56 ± 17 nM in the data set with PIN D141N [3] (setting [7]).

For ACAGUCAAGACUACGAUCUUGUUGU (structured_RNA) [mIL-6 82-106 RS (reverse stem)], the Kd in data set [1] (label: 5' 6-FAM, hairpin) is 9.8 ± 2.3 nM; in the data set with PIN-ZF D141N [2] (label: 5' 6-FAM, hairpin), 15.1 ± 7.3 nM; with PIN D141N [3] (label: 5' 6-FAM, hairpin), 39.3 ± 8.6 nM.

UGUUCUCUAUGGAGAACU (structured_RNA) [hIL-6 82-99]: the Kd came out at 4.1 ± 3.6 nM in data set [1] (label: 5' 6-FAM, hairpin); 13.2 ± 6.8 nM in the data set with PIN-ZF D141N [2] (label: 5' 6-FAM, hairpin); 15.1 ± 4.5 nM in the data set with PIN D141N [3] (label: 5' 6-FAM, hairpin).

With UGUUGUUCUCUA (ssRNA) [mIL-6 82-93 ssRNA], the Kd in data set [1] (label: 5' 6-FAM, unstructured) was determined as 19 ± 11 nM; with PIN-ZF D141N [2] (label: 5' 6-FAM, unstructured) it was 34 ± 18 nM; with PIN D141N [3] (label: 5' 6-FAM, unstructured), 41 ± 12 nM.

B2: MCPIP1WT (Monocyte Chemoattractant Protein-1-Induced Protein 1), full-length (enzyme, human, UniProt Q5D1E8 1-599, looked up)
chain: T1 sequence with N141D
notes: human MCPIP1 encoded by ZC3H12A (synthetic gene optimised for E. coli, GenScript), full length, 1-599 aa; printed molecular weight 65.7 kDa; no tag is stated for the full-length protein; In solution a mixture of tetramer, dimer and monomer; also called Regnase-1; Regnase1; source: E. coli BL21-CodonPlus-RIL, purified (TMAE ion exchange in denaturing conditions, dialysis, Superdex 200 gel …)
On to B2, for which the stoichiometry N (in general, a count of units in the complex or per binding partner) in data set [4] was 4 and 2.

B3: MCPIP1_(D141N), full-length (enzyme, human, UniProt Q5D1E8 1-599, looked up)
chain: T1 sequence
notes: human MCPIP1 encoded by ZC3H12A, full length, 1-599 aa, catalytic site mutant D141N; no tag is stated for the full-length protein; also called MCPIP_(D141N); source: E. coli BL21-CodonPlus-RIL, purified (TMAE ion exchange in denaturing conditions, dialysis, Superdex 200 gel filtration)
For the molecule B3, the “stoichiometry N” value in data set [4] is 2 and 4.

On to UUUUUUUUUUUU (ssRNA) [poly-U 12 nt], for which the values for the Kd (in data set [1] (label: 5' 6-FAM); with PIN-ZF D141N [2] (label: 5' 6-FAM); with PIN D141N [3] (label: 5' 6-FAM)) were 14.8 ± 7.2 nM, 43 ± 23 nM and 39 ± 11 nM, respectively.

Turning to UGUUGUUCUCUACGAAGAACUGACA (structured_RNA) [mIL-6 82-106 5'FAM], the Kd with PIN-ZF D141N [5] stood at 6.6 ± 3.1 nM; with PIN D141N [6], 24.1 ± 7.3 nM.

On to UGUUGUACACUACGAUGUACUGACA (structured_RNA) [mIL-6 82-106 YR], for which the Kd in data set [1] (label: 5' 6-FAM, hairpin) was 9.5 ± 5.2 nM; with PIN-ZF D141N [2] (label: 5' 6-FAM, hairpin) it was 14.4 ± 9.6 nM; in the data set with PIN D141N [3] (label: 5' 6-FAM, hairpin) it was 25.1 ± 7 nM.
